Measurements: patent publication US12697404B2, “PSMA-targeting conjugate and uses thereof” (priority 2021, dated 2026)
Read-outs that look alike come from different tables or passages of the source.

What was measured:
[1] = ^212Pb-PSMA-OM-00214 biodistribution study in xenograft-bearing mice; type: in vivo, R2G2 mice; settings: male, R2G2, mouse, iv, 10 uCi, total radioactivity, labeled with 212Pb, 10 μCi per 10 ng of conjugate, one 10 μCi dose i.v.
Method: (§1) A study was carried out in order to assess the biodistribution of PSMA-OM-00214, labeled with ^212Pb at a specific activity of 10 μCi per 10 ng of conjugate, in R2G2™ mice bearing a human prostate cancer cell tumor.
(§2) 15 male R2G2™ mice, 7-8 weeks old and weighting 33.9±3.5 g at study initiation, were injected subcutaneously, into the right flank, with 10^6 LNCaP cells in 100 μL of RPMI-1640 medium/Matrigel™ (v/v: 1/1). The tumors were let grow until they reached 200-300 mm^3 (as determined by the formula: volume=0.5×length×width^2).
(§3) Then animals were randomized based on tumor size and a group of 6 mice received intravenously (into a tail vein) one 10 μCi dose of ^212Pb-PSMA-OM-00214 (10 μCi per 10 ng of conjugate, 100 μL injection volume).
(§4) The mice were sacrificed at 4 hour post-dose injection.
(§5) Blood, bladder, reproductive organs, small intestine, colon with caecum, spleen, pancreas, kidneys, stomach, liver, lung, heart, brain, femoral bone, abdominal fat, skeletal muscle, tail (as injection site) and LNCaP tumor were collected from each sacrificed mouse, weighted and transferred to individual tubes for automatic gamma counter.
(§6) The tubes were counted for two min. The background was automatically subtracted from the counts. A standard consisting of 5 μL of the solution injected to the mice was also counted for each group of mice and used for decay correction.
(§7) The percent injected dose per gram, denoted % ID/g, was calculated for each organ collected (mean±standard deviation).

[2] = system: subcutaneous LNCaP tumors; experiment: as above; type: in vivo, R2G2 mice; settings: labeled with 212Pb, one 10 μCi dose i.v., 4 hours post-injection
Method: as §1, §2, §3, §4, §5, §6, §7

[3] = system: subcutaneous LNCaP tumors; experiment: Comparative biodistribution study in xenograft-bearing mice; type: in vivo, athymic nude mice; settings: both labeled with 212Pb, one 10 μCi dose i.v., at 1 hour, 4 hours and 24 hours post-dose injection
Method: A study was carried out in order to compare the biodistribution of PSMA-OM-00214, labeled with ^212Pb at a specific activity of 10 μCi per 10 ng of conjugate, in athymic nude mice bearing a human prostate cancer cell tumor with that of a conjugate, denoted hereinafter “DOTAM-PSMA-617”, also labeled with ^212Pb and differing from PSMA-OM-00214 in that it comprises only one PSMA ligand instead of two.
Three batches of male athymic nude mice, 7-8 weeks old and weighting 27.90±2.6 g for the first batch, 27.90±2.5 g for the second batch and 29.50±2.5 g for the third batch, at study initiation, were injected subcutaneously, into the right flank, with 10^6 LNCaP cells in 100 μL of RPMI-1640 medium/Matrigel™ (v/v: 1/1). The tumors were let grow until they reached 200-300 mm^3.
The mice were divided into a plurality of groups each comprising 3 to 14 mice.
In any case, each mouse received intravenously either one 10 μCi dose of ^212Pb-PSMA-OM-00214 (10 μCi per 10 ng of conjugate, 100 μL injection volume) or one 10 μCi dose of ^212Pb-DOTAM-PSMA-617 (10 μCi per 10 ng of conjugate, 100 μL injection volume). […]
The tubes were counted for two min. […] Standards consisting of 5 μL of the solutions injected to the mice were also counted and used for decay correction.
as §7

With `NC(=O)CN1CCN(CC(=O)NCC2CCC(C(=O)NC(Cc3ccc4ccccc4c3)C(=O)NCCCCC(NC(=O)NC(CCC(=O)O)C(=O)O)C(=O)O)CC2)CCN(CC(N)=O)CCN(CC(=O)NCC2CCC(C(=O)NC(Cc3ccc4ccccc4c3)C(=O)NCCCCC(NC(=O)NC(CCC(=O)O)C(=O)O)C(=O)O)CC2)CC1` (centres unmarked) [PSMA-OM-00214] the tissue uptake at 4 h ([1]; LNCaP tumor, 4 hours post-injection, average, read-out: tumor uptake) was greater than 20 %ID/g, the tissue uptake at 4 h ([1]; kidneys, 4 hours, read-out: kidney uptake) was roughly 10 %ID/g and the tumor/kidney ratio [2] was “satisfactory”. The “uptake in all major non-tumor tissues” value [2] was “very low uptake” and the “tumor uptake and retention compared with DOTAM-PSMA-617” value [3] was “significantly higher”.
